Common to all, as to format: cell-based, human
The subject of one test is purified DKO CAR-T cells. Briefly: Re-stimulation and secondary expansion of purified DKO CAR-T cells, with or without IL7 and IL15. Conditions: 14 day culture; re-stimulation. The procedure: After initial genetic modification and a first round of stimulation and expansion, cells from each group (Mock (WT CAR-T cells), DKO CAR-T cells, DKO CAR-T cells+CD2z CSR, and DKO CAR-T cells+CD28z CSR) were purified for TCR^−MHCI^− cells using magnetic beads. The purified cells were then re-stimulated using anti-CD2, anti-CD3, and anti-CD28 agonist mAbs. At the end of the 14 day culture period, TCR and MHCI expression (A) as well as magnitude of cell population expansion (B) was determined. After this secondary expansion, all purified DKO cells, including those expressing either CD2z or CD28z CSR, were still extremely pure for DKO cells (>98.8% DKO).
FIG. 11 is a graph showing that cytokine supplementation can further expand purified DKO CAR-T cells expressing CSR upon re-stimulation. After initial genetic modification and a first round of stimulation and expansion, cells expressing CSRs were purified for DKO cells using magnetic beads. The purified cells were then re-stimulated using anti-CD2, anti-CD3, and anti-CD28 agonist mAbs in the presence exogenous purified recombinant IL7 and IL15. At the end of the 14 day culture period, magnitude of cell population expansion was determined. After a secondary expansion, all purified DKO cells, including those expressing either CD2z or CD28z CSR, were still extremely pure for TCR^−MHCI^− cells (>98.8% double knockout (data not shown)). […]

Test [1] deals with CAR molecule on the surface of T cells. Put plainly: Staining for surface expression of CAR after secondary expansion. The settings on record: DKO cells. The source says:
After secondary expansion, cells (Mock (WT T cells), WT CAR-T cells, DKO CAR-T cells, DKO CAR-T cells+CD2z CSR, and DKO CAR-T cells+CD28z CSR) were stained for the surface-expression of CAR and compared to control WT CAR-T cells and Mock T cells.

In a further test the test system is DKO CAR-T cells. Briefly: Expansion of TCRb/b2M double-knockout (DKO) CAR-T cells after stimulation with agonist mAbs anti-CD2, anti-CD3 and anti-CD28. The settings on record: 16 day culture; CSR delivered in piggyBac transposon. The source says: FIGS. 9A-9B are a series of plots showing that piggyBac® delivery of CSR enhances the expansion of TCRb/b2M double-knockout CAR-T cells. Pan T cells isolated from normal donor blood were genetically modified using the piggyBac® DNA modification system in combination with the Cas-CLOVER™ gene-editing system. Cells were electroporated in a single reaction with a transposon encoding a CAR, selection gene and a CSR (either CD28z or CD2z), an mRNA encoding the super piggyBac™ transposase enzyme, an mRNA encoding Cas-CLOVER™, and multiple guide RNA (gRNA) targeting TCRb and b2M in order to knockout the TCR and MHCI (double-knockout; DKO). The cells were subsequently stimulated with agonist mAbs anti-CD2, anti-CD3 and anti-CD28, and were later selected for genetic modification over the course of a 16 day culture period. At the end of the initial culture period all T cells expressed the CAR, indicating successful selection for genetically-modified cells (data not shown).

A further test has as its system CAR-T cells. Put plainly: Expansion of CAR-T cells with CSR delivered transiently by mRNA or stably by piggyBac. Conditions: for expansion of CAR-T cells (total live CAR-T cells): 19 day culture, BCMA CAR, CSR transient or stable. The source says: FIG. 18 is a graph showing that delivery of CSR enhances the expansion of CAR-T cells. CSRs were delivered to CAR-T cells either transiently by mRNA or stably by piggyBac®. Pan T cells isolated from the blood of a normal donor were genetically modified using the piggyBac® DNA modification system and the standard Poseida process. Cells were co-electroporated in a single reaction with mRNA encoding the Super piggyBac™ transposase enzyme (SPB), a transposon encoding a BCMA CAR and selection gene, along with an additional mRNA encoding a CSR (either CD28z or CD2z; resulting in transient expression) or a CD19 mRNA control, or, with a transposon encoding a BCMA CAR, selection gene and a CSR (either CD28z or CD2z; resulting in stable expression). The cells were subsequently stimulated with agonist mAbs anti-CD2, anti-CD3 and anti-CD28, and were later selected for genetic modification over the course of a 19 day culture period. At the end of the initial culture period all T cells expressed the CAR, indicating successful selection for genetically-modified cells (data not shown). Bars represent total live CAR-T cells in well and numbers indicate fold-enhancement of expansion above CAR-T cells produced in the absence of a CSR or a CD19 mRNA control.
Pan T cells isolated from healthy donor blood were genetically modified using the piggyBac® DNA modification system in combination with the Cas-CLOVER™ gene-editing system (CC) for the production of allogeneic (Allo) CAR-T cells, or without CC gene-editing for the production of autologous (Auto) CAR-T cells; auto CAR-T cells were produced by nucleofection of an mRNA encoding the super piggyBac® transposase enzyme (SPB) and a transposon encoding a CAR, selection gene and a safety switch. […] Following EP, all cells were subsequently stimulated with a cocktail of agonist mAbs anti-CD2, anti-CD3 and anti-CD28, and were later selected for genetic modification over the course of a 19-day culture period using the selection gene. […]

The subject of a further test is Pan T cells. Briefly: Surface expression of CSR and cellular activation (FSC-A, CD69) after mRNA electroporation of T cells. The settings on record: for cellular activation (FSC-A, CD69): absence of exogenous stimulation; for surface expression by flow cytometry: two days after electroporation of 10 μg mRNA. Here is the method:
Pan T cells from normal blood donors were stimulated with anti-CD3/anti-CD28 beads in standard T cell culture media, then rested. These cells were then electroporated (BTX ECM 830 electroporator @ 500V for 700 μs) with 10 μg of mRNA encoding either CD28 CSR, CD2 CSR, or wild-type CD19 control. Two days later the electroporated cells were examined by flow cytometry for surface-expression of each molecule and data are shown as stacked histograms. In addition, cell size (FSC-A) and CD69 expression was evaluated as a possible indication of cellular activation above the Mock electroporated control cells.

The next test concerns Lag3, PD1, and Tim3. Briefly: Flow cytometry for exhaustion molecules. The settings on record: compared to mock T cells. The source says:
Mock (WT T cells), WT CAR-T cells, DKO CAR-T cells, DKO CAR-T cells+CD2z, and DKO CAR-T cells+CD28z were examined by flow cytometry for the expression of important exhaustion molecules Lag3, PD1, and Tim3. […] This phenotype may have a negative impact on the in vivo functionality of these CAR T cells since they appear to be more exhausted.

“CD28z CSR: chimeric stimulatory receptor: CD28 signal peptide, extracellular, transmembrane and cytoplasmic domains with CD3z intracellular domain (SEQ ID NO: 17060)”: the “magnitude of cell population expansion compared to those not expressing either CSR” value in the test with purified DKO CAR-T cells is on record as “enhanced expansion”. In test [1], the “surface expression of CAR” value is “does not have a significant impact”. In the test on DKO CAR-T cells, the “expansion of the cells in comparison to DKO CAR-T cells alone” value is “at least a two fold expansion”. Besides, the “expansion of CAR-T cells (total live CAR-T cells)” value in the test on CAR-T cells is recorded as “a greater degree of expansion”. In addition, in the test on Pan T cells, the “cellular activation (FSC-A, CD69)” value is given as “did not intrinsically activate the cells” and the “surface expression by flow cytometry” value was “Increased surface expression”. Moreover, the “expression of exhaustion molecules Lag3, PD1, and Tim3” value in the test on Lag3, PD1, and Tim3 was “significant upregulation of exhaustion markers Lag3, PD1, and Tim3”.

B1: CD2z CSR: chimeric stimulatory receptor: CD2 signal peptide, extracellular, transmembrane and cytoplasmic domains with CD3z intracellular domain (SEQ ID NO: 17062) (protein)
chain: MSFPCKFVASFLLIFNVSSKGAVSKEITNALETWGALGQDINLDIPSFQMSDDIDDIKWEKTSDKKKIAQFRKEKETFKEKDTYKLFKNGTLKIKHLKTDDQDIYKVSIYDTKGKNVLEKIFDLKIQERVSKPKISWTCINTTLTCEVMNGTDPELNLYQDGKHLKLSQRVITHKWTTSLSAKFKCTAGNKVSKESSVEPVSCPEKGLDIYLIIGICGGGSLLMVFVALLVFYITKRKKQRSRRNDEELETRAHRVATEERGRKPHQIPASTPQNPATSQHPPPPPGHRSQAPSHRPPPPGHRVQHQPQKRPPAPSGTQVHQQKGPPLPRPRVQPKPPHGAAENSLSPSSNRVKFSRSADAPAYKQGQNQLYNELNLGRREEYDVLDKRRGRDPEMGGKPRRKNPQEGLYNELQKDKMAEAYSEIGMKGERRRGKGHDGLYQGLSTATKDTYDALHMQALPPR
Consider B1, for which the “magnitude of cell population expansion compared to those not expressing either CSR” value in the test on purified DKO CAR-T cells is listed as “enhanced expansion”. Besides, in test [1], the “surface expression of CAR” value was “does not have a significant impact”. The “expansion of the cells in comparison to DKO CAR-T cells alone” value with DKO CAR-T cells is on record as “at least a two fold expansion”. For the same molecule, the “expansion of CAR-T cells compared to CAR-T cells produced without a CSR” value in the test with CAR-T cells (19-day culture, Auto and Allo CAR-T, CSR stable or mRNA 5, 10, 20 μg) is listed as “a greater degree of expansion”. Further, the “expansion of CAR-T cells (total live CAR-T cells)” value with CAR-T cells is on record as “a greater degree of expansion”. Besides, in the test with Pan T cells, the “cellular activation (FSC-A, CD69)” value is given as “did not intrinsically activate the cells” and the “surface expression by flow cytometry” value is reported as “Increased surface expression”. The “expression of exhaustion molecules Lag3, PD1, and Tim3” value in the test with Lag3, PD1, and Tim3 is given as “little to no expression of exhaustion molecules”.

Values taken from patent publication US20220389077A1, “ALLOGENEIC CELL COMPOSITIONS AND METHODS OF USE” (Poseida Therapeutics, Inc., priority 2018, published 2022).
